Here are results for four molecules from patent US20240343803A1 (SHANDONG SIMCERE BIOPHARMACEUTICAL, published 2024).

Where two headings read alike, the source gives them in different places.

The target in test [1] is T1, Fusion protein of extracellular domain of human TIGIT and His-tag (human TIGIT ECD-his) (human).
T1 chain: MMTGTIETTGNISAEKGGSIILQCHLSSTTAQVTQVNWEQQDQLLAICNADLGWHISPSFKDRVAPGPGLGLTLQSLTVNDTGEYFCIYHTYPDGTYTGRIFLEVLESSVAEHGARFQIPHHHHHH
Briefly: BIAcore. On the technique in general: SPR reads the build-up and loss of mass on a sensor chip optically.

The target in test [2] is T2, Fusion protein of extracellular domain of human TIGIT and mouse IgG2a Fc fragment (human TIGIT ECD-mFc) (human).
T2 construct: The entry includes the signal peptide (limits not recoverable) and the mouse IgG2a Fc
T2 chain: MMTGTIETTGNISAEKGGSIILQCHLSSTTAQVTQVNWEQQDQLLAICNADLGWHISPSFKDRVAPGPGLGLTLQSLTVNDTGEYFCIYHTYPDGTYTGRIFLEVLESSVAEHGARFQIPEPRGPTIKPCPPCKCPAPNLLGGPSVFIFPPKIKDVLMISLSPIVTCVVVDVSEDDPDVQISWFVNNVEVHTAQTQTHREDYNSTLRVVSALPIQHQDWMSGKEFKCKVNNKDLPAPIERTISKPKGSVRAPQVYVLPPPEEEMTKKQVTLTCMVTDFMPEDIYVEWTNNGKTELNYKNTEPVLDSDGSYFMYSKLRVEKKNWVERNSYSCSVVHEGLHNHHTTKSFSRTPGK
Briefly: ELISA, human TIGIT ECD-mFc. The gist of the method:
(§1)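 Antibodies diluted to 13 nM in 1% BSA, then 3-fold serial dilution for 12 concentrations, incubated with milk-blocked plates at 37° C for 1.5-2 h. Bound antibody detected with HRP-labelled secondary antibody (1:5000, 37° C, 1 h) and TMB, stopped with 1M HCl; OD450 nm read.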

For test [3], the target named is T1, Fusion protein of extracellular domain …. Briefly: BIAcore; KD ratio to TIGIT-CHI-002.
In test [4] the target is T3, Fusion protein of extracellular domain of cynomolgus monkey TIGIT and mouse IgG2a Fc fragment (cynomolgus … (cynomolgus monkey)).
T3 construct: The entry includes the signal peptide (limits not recoverable) and the mouse IgG2a Fc
As to the kind of experiment: ELISA, cynomolgus monkey TIGIT ECD-mFc. The essentials: as §1
Target sequence in this assay (chain, as listed by the source limits assumed): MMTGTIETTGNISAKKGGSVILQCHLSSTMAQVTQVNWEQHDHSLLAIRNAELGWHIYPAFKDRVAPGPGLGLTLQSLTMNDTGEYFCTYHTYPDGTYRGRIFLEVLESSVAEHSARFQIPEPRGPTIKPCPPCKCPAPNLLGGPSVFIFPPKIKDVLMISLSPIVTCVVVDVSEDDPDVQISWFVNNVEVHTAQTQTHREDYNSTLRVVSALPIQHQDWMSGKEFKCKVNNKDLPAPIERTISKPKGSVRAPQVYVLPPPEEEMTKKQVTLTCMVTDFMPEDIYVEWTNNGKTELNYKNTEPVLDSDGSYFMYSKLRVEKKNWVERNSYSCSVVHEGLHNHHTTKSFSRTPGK

Test [5] addresses T4, Full-length cynomolgus monkey TIGIT on CHO-K1 cells (CHO-K1 cynomolgus monkey TIGIT) (cynomolgus monkey).
T4 construct: NCBI XP_015300911.1
Briefly: cell binding, CHO-K1 cynomolgus monkey TIGIT. The gist of the method: (§2)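 Binding was measured by flow cytometry after a 60-minute, 4° C incubation of the antibodies with 2×10⁵ CHO-K1 cells displaying full-length human or cynomolgus monkey TIGIT. Antibody titration: 12 points, threefold serial dilution from 80 nM, in 1% BSA-PBS.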

Test [6] addresses T5, Fusion protein of extracellular domain of human TIGIT and human IgG1 Fc fragment (human TIGIT ECD-hFc) (human).
T5 construct: The entry includes the signal peptide (limits not recoverable) and the human IgG1 Fc
Briefly: blocking of TIGIT ECD-hFc binding to CHO-K1 CD155 cells. The gist of the method: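 Inhibition was expressed as IC50 values derived from the inhibition curves of a cell-based ELISA. CHO-K1 CD155 cells were cultured overnight, fixed, and blocked with 5% skim milk-PBS. Antibodies were first premixed for 0.5 h with human TIGIT ECD-hFc at a working concentration of 30 ng/mL, and the mixture was then added to the cells for 1.5-2 h at 37° C. Bound TIGIT was detected with HRP secondary antibody (1:5000, 37° C, 1 h) and TMB, and read as OD450 nm.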

The target in test [7] is T6, Full-length human TIGIT on CHO-K1 cells (CHO-K1 human TIGIT) (human, UniProt Q495A1 22-244).
T6 construct: NCBI XP_024309156.1; the entry includes the signal peptide (limits not recoverable); The strain (high, medium, low) is named under assay; also called high expression strain 1D2; medium expression strain 2D10
T6 sequence: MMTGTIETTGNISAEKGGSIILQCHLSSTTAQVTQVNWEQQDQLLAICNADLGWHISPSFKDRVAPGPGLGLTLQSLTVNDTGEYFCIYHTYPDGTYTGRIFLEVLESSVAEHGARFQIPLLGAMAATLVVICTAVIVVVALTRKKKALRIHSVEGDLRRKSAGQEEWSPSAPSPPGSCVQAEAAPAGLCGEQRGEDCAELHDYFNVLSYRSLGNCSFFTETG
Briefly: cell binding, CHO-K1 human TIGIT high expression strain. The gist of the method: as §2

Test [8] concerns the target T1, Fusion protein of extracellular domain …. Briefly: BIAcore.
The target of test [9] is T2, Fusion protein of extracellular domain …. Briefly: ELISA, human TIGIT ECD-mFc. For orientation: In an ELISA, binding on a coated surface is turned into a signal by an enzyme label.
The target of test [10] is T4, Full-length cynomolgus monkey TIGIT on …. As to the kind of experiment: FACS; CHO-K1 cynomolgus monkey TIGIT. The essentials:
(§3)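 Flow cytometry was used to measure antibody binding to CHO-K1 cells carrying full-length human or cynomolgus monkey TIGIT. Antibodies were serially diluted 3-fold across 12 points from 80 nM, then combined 1:1 with cells held at 2×10⁵/50 μL in 1% BSA-PBS and kept at 4° C for 60 min.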
On the technique in general: A flow cytometer gives signals particle by particle.

The target in test [11] is T3, Fusion protein of extracellular domain …. Briefly: ELISA, cynomolgus monkey TIGIT ECD-mFc. This is another data set of the same source.
The target in test [12] is T7, TIGIT on human PBMCs stimulated by SEA (human, UniProt Q495A1 22-244).
T7 construct: whole, on cells
T7 sequence (looked up): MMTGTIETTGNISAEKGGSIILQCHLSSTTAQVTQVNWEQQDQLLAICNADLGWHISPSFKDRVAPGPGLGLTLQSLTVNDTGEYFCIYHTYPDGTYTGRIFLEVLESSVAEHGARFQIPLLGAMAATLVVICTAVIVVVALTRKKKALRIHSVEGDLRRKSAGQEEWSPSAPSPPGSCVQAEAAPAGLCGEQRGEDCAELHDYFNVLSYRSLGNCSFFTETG
As to the kind of experiment: FACS; binding to SEA-stimulated human PBMC. How it is done:
The fresh human PBMCs (AllCells, PB004-C) were adjusted to a density of 5×10⁵/mL, added with SEA (Toxin Technology, Inc., CAT: AT101) to 100 ng/ml, and cultured at 37° C. with 5% CO₂ for 3 days. The cells were collected 3 days later, washed once with PBS (Hyclone, CAT #SH30256), added with Fc Block (BD, 564220) and then incubated at 4° C. for 10 minutes. After washing twice with PBS, the PBMCs were resuspended to 2×10⁵/50 μL with 1% BSA-PBS. The humanized antibodies were diluted to 80 nM with 1% BSA-PBS (diluted by 3-fold serial dilution for 12 concentration points). The 50 μL cells were then mixed with 50 μL diluted antibodies, and then incubated at 4° C. for 60 minutes. […] After washing twice with PBS, the cell samples were resuspended with 1% BSA-PBS, 100 μL/well and then analyzed by flow cytometry (BD, Canto II).

The target in test [13] is T6, Full-length human TIGIT on CHO-K1 cells …. Briefly: FACS; CHO-K1 human TIGIT low expression strain. The essentials:
as §3

Test [14] has the same target. As to the kind of experiment: FACS; CHO-K1 human TIGIT high expression strain. The essentials: as §3
Test [15] has the same target. Briefly: FACS; CHO-K1 human TIGIT medium expression strain. The gist of the method:
as §3

In test [16] the target is T2, Fusion protein of extracellular domain …. As to the kind of experiment: FACS; blocking of TIGIT ECD-mFc binding to CHO-K1 CD112 cells. How it is done:
The collected CHO-K1 CD112 cells were washed once with PBS (Hyclone, CAT #SH30256) and resuspended to 2×10⁵/40 μL with 1% BSA-PBS. The anti-TIGIT humanized antibodies were diluted to 600 nM with 1% BSA-PBS (diluted by 2.5-fold serial dilution for 12 concentration points). The TIGIT ECD-mFc was diluted with 1% BSA-PBS to 6 μg/mL. The 40 μL cells were then mixed with 40 μL diluted antibodies and 40 μL diluted TIGIT ECD-mFc, and then incubated at 4° C. for 60 minutes. […] The cell samples were washed twice with PBS, resuspended to 100 μL/well with 1% BSA-PBS and then analyzed by flow cytometry (BD, Canto II). […] (f) The binding activity of anti-TIGIT humanized antibodies to human PBMCs detected by FACS.

Test [17] has the same target. Briefly: FACS; blocking of TIGIT ECD-mFc binding to CHO-K1 CD155 cells.
Test [18] has as its target T6, Full-length human TIGIT on CHO-K1 cells …. As to the kind of experiment: FACS; blocking of Bio-CD155-His binding to CHO-K1 human TIGIT cells. The gist of the method:
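For this flow cytometry blocking assay, antibody in a 12-point 3-fold dilution series starting at 210 nM was mixed at equal volume with CHO-K1 human TIGIT cells (2×10⁵/40 μL in 1% BSA-PBS) and with biotinylated CD155-His, diluted to 3 μg/mL, then held at 4° C for 60 min. Bound ligand was detected on a BD Canto II after staining with APC-streptavidin (1:1700) at 4° C for 40 min. The IC50 came from the inhibition curves.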

As a reminder, the Kd is a measure of binding affinity in units of concentration. For orientation: koff means the first-order rate constant of dissociation. As a reminder, the kon is the rate constant with which the complex forms. As usually defined, the EC50 is the concentration giving half of the maximal effect. By IC50 is commonly meant the concentration at which inhibition is half-maximal.

T5 sequence (chain, as listed by the source limits assumed): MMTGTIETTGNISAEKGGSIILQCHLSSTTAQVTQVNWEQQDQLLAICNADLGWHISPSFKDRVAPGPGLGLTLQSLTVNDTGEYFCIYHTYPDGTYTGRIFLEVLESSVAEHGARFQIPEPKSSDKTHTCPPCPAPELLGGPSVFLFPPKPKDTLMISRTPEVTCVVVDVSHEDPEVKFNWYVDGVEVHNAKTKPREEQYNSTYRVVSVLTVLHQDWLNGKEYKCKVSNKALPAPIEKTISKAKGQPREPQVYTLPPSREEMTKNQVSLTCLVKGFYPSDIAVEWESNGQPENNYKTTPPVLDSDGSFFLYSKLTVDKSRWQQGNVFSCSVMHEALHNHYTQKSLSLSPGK
T4 sequence (chain, as listed by the source limits assumed): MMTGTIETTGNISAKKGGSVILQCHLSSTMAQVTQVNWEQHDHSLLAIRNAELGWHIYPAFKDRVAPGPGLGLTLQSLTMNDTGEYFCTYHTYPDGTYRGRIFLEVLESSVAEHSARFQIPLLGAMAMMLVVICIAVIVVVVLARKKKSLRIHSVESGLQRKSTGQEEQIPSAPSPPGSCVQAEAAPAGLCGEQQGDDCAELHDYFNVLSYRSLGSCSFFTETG

B1: TIGIT-002-H2L3 (antibody, V domains shown)
VH: EVQLQESGPGLVKPSETLSLTCAVSGYSITSDSWNWIRQPPGKKLEWIGYISYSGNTYYNPSLKSRVTISRDTSKNQFSLKLSSVTAADTAVYYCARLDFSNYGGAVDYWGQGTTVTVSS
VL: DIVMTQSPDSLAVSLGERATINCKASQNVRTAVAWYQQKPGQSPKLMIYSASYRYTGVPDRFSGSGSGTDFTLTISSLQAEDVAVYYCQQYYTTPWTFGGGTKVEIK
notes: Humanized anti-TIGIT antibody
Molecule B1 came in with a Kd in test [1] of 0.266 nM. Also, the koff in [1] was determined as 0.00107 s⁻¹. The molecule further registered a kon in [1] of 4.03e+06 M⁻¹ s⁻¹. In addition, the EC50 in test [2] is 0.0159 nM; in test [4], 0.0337 nM; in [5] it was 0.15 nM; in test [7], 0.0278 nM. Also, the “Fold change vs chimeric antibodies (KD)” value in [3] was 6.3 fold. Also, the IC50 in test [6] is 0.54 nM.

B2: TIGIT-002-H1L3 (antibody, V domains shown)
VH: EVQLQESGPGLVKPSETLSLTCAVSGYSITSDSWNWIRQPPGKGLEWIGYISYSGNTYYNPSLKSRVTISRDTSKNQFSLKLSSVTAADTAVYYCARLDFSNYGGAVDYWGQGTTVTVSS
VL: DIVMTQSPDSLAVSLGERATINCKASQNVRTAVAWYQQKPGQSPKLMIYSASYRYTGVPDRFSGSGSGTDFTLTISSLQAEDVAVYYCQQYYTTPWTFGGGTKVEIK
notes: Humanized anti-TIGIT antibody
B2 registered a Kd in [1] of 0.271 nM. The same molecule yielded a koff in test [1] of 0.000973 s⁻¹. This molecule yielded a kon in [1] of 3.59e+06 M⁻¹ s⁻¹. Also, the EC50 in test [2] is 0.0157 nM; in test [4], 0.0511 nM; in test [5] it was 0.143 nM; in test [7], 0.0253 nM. Further, the “Fold change vs chimeric antibodies (KD)” value in test [3] is 6.44 fold. The IC50 in test [6] is 0.395 nM.

B3: TIGIT-002-H3L3 (antibody, V domains shown)
VH: EVQLQESGPGLVKPSETLSLTCAVSGYSITSDSWNWIRQPPGKKLEWMGYISYSGNTYYNPSLKSRITISRDTSKNQFSLKLSSVTAADTAVYYCARLDFSNYGGAVDYWGQGTTVTVSS
VL: DIVMTQSPDSLAVSLGERATINCKASQNVRTAVAWYQQKPGQSPKLMIYSASYRYTGVPDRFSGSGSGTDFTLTISSLQAEDVAVYYCQQYYTTPWTFGGGTKVEIK
notes: Humanized anti-TIGIT antibody
For the molecule B3, the Kd in test [1] stood at 0.188 nM. This molecule yielded a koff in test [1] of 0.000852 s⁻¹. Moreover, the on-rate constant (kon) in test [1] was 4.52e+06 M⁻¹ s⁻¹. The EC50 in test [2] was 0.0173 nM; in test [4] it was 0.022 nM; in test [5] it was 0.0919 nM; in test [7], 0.0361 nM. In addition, the “Fold change vs chimeric antibodies (KD)” value in test [3] came out at 4.47 fold. Moreover, the IC50 in [6] stood at 0.339 nM.

B4: RG6058-hIgG1 (antibody, V domains shown)
VH: EVQLQQSGPGLVKPSQTLSLTCAISGDSVSSNSAAWNWIRQSPSRGLEWLGKTYYRFKWYSDYAVSVKGRITINPDTSKNQFSLQLNSVTPEDTAVFYCTRESTTYDLLAGPFDYWGQGTLVTVSS
VL: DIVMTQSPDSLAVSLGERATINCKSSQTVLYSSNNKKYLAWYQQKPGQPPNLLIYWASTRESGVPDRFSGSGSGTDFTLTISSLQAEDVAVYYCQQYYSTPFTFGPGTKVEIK
notes: Control anti-TIGIT antibody, human IgG1; also called Roche RG6058
In the case of B4, the Kd in [8] turned out to be 0.156 nM. In test [8], this molecule returned a koff of 0.000135 s⁻¹. Further, the kon in [8] came out at 866000 M⁻¹ s⁻¹. Further, the concentration giving a half-maximal response (EC50) in test [9] stood at 0.0393 nM; in test [10], 2.29 nM; in test [11] it was 0.0486 nM; in test [12] it was 0.285 nM; in test [13] it was 0.481 nM; in [14] it was 0.794 nM. Further, the EC50 in [15] worked out at 0.652 nM. Also, the figures for the IC50 in [16], in test [17] and in test [18] were 6 nM, 0.584 nM and 0.334 nM, respectively.
